# Laboratory results reported in paper PMC12415521 (Methods in molecular biology (Clifton, N.J.), 2023).
# Where two headings read alike, the source gives them in different places.
# T1: CD2 domain of cpSRP43
# T1 chain: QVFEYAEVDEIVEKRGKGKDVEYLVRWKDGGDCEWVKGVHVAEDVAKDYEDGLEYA
# Legend:
# [1] = target: T1, CD2 domain of cpSRP43; experiment: ITC
# [2] = target: T1, CD2 domain of cpSRP43; experiment: ITC
binder,measurement,setting,value
APPGTARRKRKADS [54-peptide],Kd,[1],1420 nM
same,Kd,[2],1270 nM
